From article PMC8313134, “Jasmonate‐ and abscisic acid‐activated AaGSW1‐AaTCP15/AaORA transcriptional cascade promotes artemisinin biosynthesis in Artemisia annua” come the findings set out here.

Common to all, as to settings: protein: recombinant; tags: His-TF (trigger factor), pCold-TF; chain copies: 2; blunt
Series [1] addresses T1, AaTCP15 (Artemisia annua, UniProt A0A8E3YC86 1-384). The experiment in a line: EMSA; cold Aq competitor reduces shift; not given; EMSA as described in Ma et al. 2018; cold competitor 10x, 20x, 40x.
Series [2] has as its target T1, AaTCP15. The experiment in a line: EMSA; cold Dq competitor reduces shift; not given; EMSA as described in Ma et al. 2018; cold competitor 10x, 20x, 40x.
Series [3] has as its target T1, AaTCP15. As to the kind of experiment: EMSA; not given; EMSA as described in Ma et al. 2018; cold competitor 10x, 20x, 40x.

Where a chain is given by its changes, count along the chain named.

T1 sequence (A0A8E3YC86 entry or part of it): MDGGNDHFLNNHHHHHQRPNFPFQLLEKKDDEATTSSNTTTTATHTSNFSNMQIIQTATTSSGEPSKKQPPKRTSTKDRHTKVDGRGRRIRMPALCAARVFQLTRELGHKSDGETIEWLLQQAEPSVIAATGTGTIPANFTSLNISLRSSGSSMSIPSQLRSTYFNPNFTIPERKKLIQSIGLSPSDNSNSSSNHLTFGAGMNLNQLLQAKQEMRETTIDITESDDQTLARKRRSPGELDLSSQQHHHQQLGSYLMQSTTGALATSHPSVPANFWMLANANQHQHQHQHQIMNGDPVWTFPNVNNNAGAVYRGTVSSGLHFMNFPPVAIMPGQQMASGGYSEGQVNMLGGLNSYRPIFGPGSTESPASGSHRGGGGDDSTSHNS

B1: Aq probe (ALDH1 promoter) (dsDNA)
DNA 1: GGTTGGTTGCATTATCTGGCCCCACCGTAAACAATCAAATGC
DNA 2: GCATTTGATTGTTTACGGTGGGGCCAGATAATGCAACCAACC
As for B1, in the series with AaTCP15 [1], the binding result is on record as “binds”.

B2: Dq probe (DBR2 promoter) (dsDNA)
DNA 1: GTCGCTAAACTTGCCACGGTCCCACTTTTTCAACTCTTATTA
DNA 2: TAATAAGAGTTGAAAAAGTGGGACCGTGGCAAGTTTAGCGAC
On to B2, for which the binding result with AaTCP15 [2] is given as “binds”.

B3: Dq mutated probe (dsDNA)
DNA 1: B2 DNA 1 with C21A, C22A, C23A, A24C, C25A
DNA 2: B2 DNA 2 with G18T, T19G, G20T, G21T, G22T
Consider B3, for which, in the series with AaTCP15 [3], the binding result is “no binding”.
